Data as given in paper PMC10191176 (Nature immunology, 2022).
Where a chain is given by its changes, count along the chain named. Names and notes keep the numbering of the source.

What was measured:
[1] = biological target: HLA-DR4 loaded with CLIP peptide (UniProt P04233); experiment: SPR
[2] = biological target: HLA-DR4 (DRA*0101/DRB1*0401) with the linked p24 HIV Gag peptide 164-183 (HLA-DR4^HIV) (human | HIV); experiment: SPR
SEC-MALS = biological target: the molecule itself; experiment: SEC-MALS
[3] = biological target: T1, yeast-displayed FGL1^FD E250A/E251A/D252A (human, UniProt Q08830 58-312, E250A | E251A | D252A); experiment: flow cytometry on cells
T1 sequence (looked up): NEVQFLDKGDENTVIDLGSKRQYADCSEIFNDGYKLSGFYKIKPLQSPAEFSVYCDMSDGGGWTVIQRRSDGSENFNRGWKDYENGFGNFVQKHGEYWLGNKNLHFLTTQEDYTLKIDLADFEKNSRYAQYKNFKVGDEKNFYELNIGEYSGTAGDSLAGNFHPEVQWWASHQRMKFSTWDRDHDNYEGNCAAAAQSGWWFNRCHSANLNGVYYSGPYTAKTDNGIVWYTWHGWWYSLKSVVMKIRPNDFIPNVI

[4] = biological target: T2, yeast-displayed FGL1^FD Y244A/E245A (human, UniProt Q08830 58-312, Y244A | E245A); experiment: flow cytometry on cells
T2 sequence (looked up): T1 sequence (looked up) with Y187A, E188A, A193E, A194E, A195D

Sequence of HLA-DR4 loaded with CLIP peptide (P04233 whole entry, looked up, tested part not stated): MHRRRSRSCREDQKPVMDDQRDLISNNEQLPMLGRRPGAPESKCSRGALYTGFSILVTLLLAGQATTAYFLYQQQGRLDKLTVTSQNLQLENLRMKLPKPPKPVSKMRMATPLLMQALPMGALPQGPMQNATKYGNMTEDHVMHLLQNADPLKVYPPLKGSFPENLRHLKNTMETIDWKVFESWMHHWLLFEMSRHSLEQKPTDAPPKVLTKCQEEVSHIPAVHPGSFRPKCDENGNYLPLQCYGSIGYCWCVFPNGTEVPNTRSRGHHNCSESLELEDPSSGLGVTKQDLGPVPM

hLAG3* (human LAG3 extracellular domain with the M171I mutation) (from UniProt P18627 23-450) (domain or fragment)
Kd [1]: 2.45 µM
Kd [2]: 5.2 µM

B1: murine LAG3 extracellular domain (mLAG3, residues 23-442) (domain or fragment, mouse, UniProt Q61790 23-442, looked up)
chain: SGPGKELPVVWAQEGAPVHLPCSLKSPNLDPNFLRRGGVIWQHQPDSGQPTPIPALDLHQGMPSPRQPAPGRYTVLSVAPGGLRSGRQPLHPHVQLEERGLQRGDFSLWLRPALRTDAGEYHATVRLPNRALSCSLRLRVGQASMIASPSGVLKLSDWVLLNCSFSRPDRPVSVHWFQGQNRVPVYNSPRHFLAETFLLLPQVSPLDSGTWGCVLTYRDGFNVSITYNLKVLGLEPVAPLTVYAAEGSRVELPCHLPPGVGTPSLLIAKWTPPGGGPELPVAGKSGNFTLHLEAVGLAQAGTYTCSIHLQGQQLNATVTLAVITVTPKSFGLPGSRGKLLCEVTPASGKERFVWRPLNNLSRSCPGPVLEIQEARLLAERWQCQLYEGQRLLGATVYAAESSSGAHSARRISGDLKGGHL
stoichiometry N (SEC-MALS): 2

B2: hLAG3* (human LAG3 extracellular domain with the M171I mutation) (domain or fragment, UniProt P18627 23-450, looked up)
chain: LQPGAEVPVVWAQEGAPAQLPCSPTIPLQDLSLLRRAGVTWQHQPDSGPPAAAPGHPLAPGPHPAAPSSWGPRPRRYTVLSVGPGGLRSGRLPLQPRVQLDERGRQRGDFSLWLRPARRADAGEYRAAVHLRDRALSCRLRLRLGQASITASPPGSLRASDWVILNCSFSRPDRPASVHWFRNRGQGRVPVRESPHHHLAESFLFLPQVSPMDSGPWGCILTYRDGFNVSIMYNLTVLGLEPPTPLTVYAGAGSRVGLPCRLPAGVGTRSFLTAKWTPPGGGPDLLVTGDNGDFTLRLEDVSQAQAGTYTCHIHLQEQQLNATVTLAIITVTPKSFGSPGSLGKLLCEVTPVSGQERFVWSSLDTPSQRSFSGPWLEAQEAQLLSQPWQCQLYQGERLLGAAVYFTELSSPGAQRSGRAPGALPAGHL
modifications: biotin on the BAP tag (BirA ligase) in binding experiments
reduction of binding relative to wild-type FGL1^FD [3]: 80%
reduction of binding relative to wild-type FGL1^FD [4]: 75%
